Source: article PMC10504544, “1-deoxy-D-xylulose-5-phosphate synthase from Pseudomonas aeruginosa and Klebsiella pneumoniae reveals conformational changes upon cofactor binding” (The Journal of Biological Chemistry, 2023)

What was measured:
[1] = substrate: CC(=O)C(=O)O; assay: steady-state kinetics (Km), IspC-coupled assay; type: biochemical, Pseudomonas aeruginosa; settings: ThDP, Mg2+
[2] = substrate: O=CC(O)COP(=O)(O)O; assay: steady-state kinetics (Km), IspC-coupled assay; type: biochemical, Pseudomonas aeruginosa; settings: ThDP, Mg2+

B1: 1-deoxy-D-xylulose-5-phosphate synthase (paDXPS) (Pseudomonas aeruginosa PAO1) (protein)
chain: MPKTLHEIPRERPATPLLDRASSPAELRRLGEADLETLADELRQYLLYTVGQTGGHFGAGLGVVELTIALHYVFDTPDDRLVWDVGHQAYPHKILTERRELMGTLRQKNGLAAFPRRAESEYDTFGVGHSSTSISAALGMAIAARLQGKERKSVAVIGDGALTAGMAFEALNHASEVDADMLVILNDNDMSISHNVGGLSNYLAKILSSRTYSSMREGSKKVLSRLPGAWEIARRTEEYAKGMLVPGTLFEELGWNYIGPIDGHDLPTLVATLRNMRDMKGPQFLHVVTKKGKGFAPAELDPIGYHAITKLEAPGSAPKKTGGPKYSSVFGQWLCDMAAQDARLLGITPAMKEGSDLVAFSERYPERYFDVAIAEQHAVTLAAGMACEGMKPVVAIYSTFLQRAYDQLIHDVAVQHLDVLFAIDRAGLVGEDGPTHAGSFDISYLRCIPGMLVMTPSDEDELRKLLTTGYLFDGPAAVRYPRGSGPNHPIDPDLQPVEIGKGVVRRRGGRVALLVFGVQLAEAMKVAESLDATVVDMRFVKPLDEALVRELAGSHELLVTIEENAVMGGAGSAVGEFLASEGLEVPLLQLGLPDYYVEHAKPSEMLAECGLDAAGIEKAVRQRLDRQ
In the case of B1, the Km [1] is reported as 184 ± 25 µM and the Km [2] is reported as 357 ± 77 µM.
